The values below come from patent US12091776B2, “Protease activity profiling via programmable phage display of comprehensive proteome-scale peptide libraries” (THE JOHNS HOPKINS UNIVERSITY, priority 2019, dated 2024).

To fix the notation:
B1: VASN: Vasorin, known ADAM17 substrate; library peptide amino acids 496-585 (protein)
peptide: LTYRNLSGPDKRLVTLRLPASLAEYTVTQLRPNATYSVCVMPLGPGRVPEGEEACGEAHTPPAVHSNHAPVTQAREGNLPLLIAPALAAV
B2: QSVSPVQAPPPGGSAQLLPGKVLVPLAAPSMSVRGGGAGQPLPLVSPPFSVPVQNGAQPPSKIIQLTPVPVSTPSGLVPPLSPATLPGPT (protein, listed as Homo sapiens)
chain: QSVSPVQAPPPGGSAQLLPGKVLVPLAAPSMSVRGGGAGQPLPLVSPPFSVPVQNGAQPPSKIIQLTPVPVSTPSGLVPPLSPATLPGPTA
B3: … (protein, listed as Homo sapiens)
chain: STRPVLASIEPELPMQLVSQDDESGQKKLHGLQAILVHEASGTTAITATATGYQESHLSSARTKQPHDPLVPLSASIELILVEDVRVSPE
B4: MELQSRPEALAVELARHQNGDLKKQLHERQPRIAALSDKQALGTITAVPVTGPQVSSLQRLAGQGAAVLPQVRPKTLIPDSLPVAPGRDR (protein, listed as Homo sapiens)
chain: MELQSRPEALAVELARHQNGDLKKQLHERQPRIAALSDKQALGTITAVPVTGPQVSSLQRLAGQGAAVLPQVRPKTLIPDSLPVAPGRDR
B5: HSALPFRLQLRRGEARLGEERHFQESGNSSWEILRASKAEEGTYECTAVSRAGTGRAKAQIVVTDPPPQLVPAPNVTVSPGETAVLSCRV (protein, listed as Homo sapiens)
chain: HSALPFRLQLRRGEARLGEERHFQESGNSSWEILRASKAEEGTYECTAVSRAGTGRAKAQIVVTDPPPQLVPAPNVTVSPGETAVLSCRV
B6: SSVSTGHTTPLHVTDASSASTGQATPLPVTSLSSVSTGDTTPLPVTSPSSASTGHATPLLVTDTSSASTGHATPLPVTDASSVSTDHATS (protein, listed as Homo sapiens)
chain: SSVSTGHTTPLHVTDASSASTGQATPLPVTSLSSVSTGDTTPLPVTSPSSASTGHATPLLVTDTSSASTGHATPLPVTDASSVSTDHATS
B7: EIVPASLQRVRRPVAMVMPARRTPHVQAVQGPLGSPPKRGPLPTEEQRVYRRKELEEVSPETPVVPATTQRTLARPGPEPAPATDERDRV (protein, listed as Homo sapiens)
chain: EIVPASLQRVRRPVAMVMPARRTPHVQAVQGPLGSPPKRGPLPTEEQRVYRRKELEEVSPETPVVPATTQRTLARPGPEPAPATDERDRV
B8: PVTSTSSASTGHATPLPVTGLSSATTDDTTRLPVTDVSSASTGQATPLPVTSLSSVSTGDTTPLPVTSPSSASTGHASPLLVTDASSAST (protein, listed as Homo sapiens)
chain: PVTSTSSASTGHATPLPVTGLSSATTDDTTRLPVTDVSSASTGQATPLPVTSLSSVSTGDTTPLPVTSPSSASTGHASPLLVTDASSAST
B9: KVATLPLSSRAGAPPAAVPIINMILPTVPALPGPGPGPGRAPPGGLTQPRGTENREVGIGGDQGPHDKGVKRTAEVPVSEASGQAPPAKA (protein, listed as Homo sapiens)
chain: KVATLPLSSRAGAPPAAVPIINMILPTVPALPGPGPGPGRAPPGGLTQPRGTENREVGIGGDQGPHDKGVKRTAEVPVSEASGQAPPAKA
B10: YVAPLTAQPATYRAQPSVSLGAAYRAQPSASLGVGYRTQPMTAQAASYRAQPSVSLGAPYRGQLASPSSQSAAASSLGPYGGAQPSASAL (protein, listed as Homo sapiens)
chain: YVAPLTAQPATYRAQPSVSLGAAYRAQPSASLGVGYRTQPMTAQAASYRAQPSVSLGAPYRGQLASPSSQSAAASSLGPYGGAQPSASAL
B11: EPEPTPGLVLSKPALEEEEAPRALSLLSLPPKKRSILGLGQARPLEFLRTCYGGSFLVHESFLYKREKAVGDKVYWTCRDHALHGCRSRA (protein, listed as Homo sapiens)
chain: EPEPTPGLVLSKPALEEEEAPRALSLLSLPPKKRSILGLGQARPLEFLRTCYGGSFLVHESFLYKREKAVGDKVYWTCRDHALHGCRSRA
B12: KAGVVTLHSVGPTAATGTTAGTGLLQTSKPLVTSVANTVTTVSLQPEKPVVSGTAVTLSLPAVTFGETSGAAICLPSVKPVVSSAGTTS (protein, listed as Homo sapiens)
chain: KAGVVTLHSVGPTAATGTTAGTGLLQTSKPLVTSVANTVTTVSLQPEKPVVSGTAVTLSLPAVTFGETSGAAICLPSVKPVVSSAGTTS
B13: ARQEKLAFQEDSRSTLSRRELDAAHTGTTGQDSDFPVTAASTVDFLKIKKSCEENVCRSLKDCEMEKCPDSCAHEMESVADHEPNKRILG (protein, listed as Homo sapiens)
chain: ARQEKLAFQEDSRSTLSRRELDAAHTGTTGQDSDFPVTAASTVDFLKIKKSCEENVCRSLKDCEMEKCPDSCAHEMESVADHEPNKRILG
B14: ATPGAPGSSTPGEADIGNTSFGKSGKSGHDSLTVLNPAFLRRTPTVSAASTTSSPVSKHTDAASATAVTISGSKPGTPGTPGGATSGGKI (protein, listed as Homo sapiens)
chain: ATPGAPGSSTPGEADIGNTSFGKSGKSGHDSLTVLNPAFLRRTPTVSAASTTSSPVSKHTDAASATAVTISGSKPGTPGTPGGATSGGKI
B15: PARLLGPSLTSTTPASSSSGSSSRGPSDTSSRFSKEQRGVAQPLAQLRSCPQEEGPRGRGLAARPLENRAGGPVARSEEPGAPLPVAVGT (protein, listed as Homo sapiens)
chain: PARLLGPSLTSTTPASSSSGSSSRGPSDTSSRFSKEQRGVAQPLAQLRSCPQEEGPRGRGLAARPLENRAGGPVARSEEPGAPLPVAVGT
B16: SPLIAPVMGTVAVSLSSPLLSSTATPPGVSQNLLANPMSNLVLPEAPRLRLAEPLRGGPTGPQSPACVVPTATTKVPLSTEPPQSTQDPE (protein, listed as Homo sapiens)
chain: SPLIAPVMGTVAVSLSSPLLSSTATPPGVSQNLLANPMSNLVLPEAPRLRLAEPLRGGPTGPQSPACVVPTATTKVPLSTEPPQSTQDPE
B17: VLNSGARVWPSASALGLTAPPKDAEDRARPASGLRGARVLSEGREPRASLRVQVRPGLDVAAPGVCSLSCPSPPRSSAHPGPRGPLFPAL (protein, listed as Homo sapiens)
chain: VLNSGARVWPSASALGLTAPPKDAEDRARPASGLRGARVLSEGREPRASLRVQVRPGLDVAAPGVCSLSCPSPPRSSAHPGPRGPLFPAL
B18: RLALPLRSLSASSGWNESCSSQSDISLDHVQRRRSRLKEPPELQSSERAAGSPPAPGTMSKHRGKSSATCRCCVTYCEGENHLRNKSRAE (protein, listed as Homo sapiens)
chain: RLALPLRSLSASSGWNESCSSQSDISLDHVQRRRSRLKEPPELQSSERAAGSPPAPGTMSKHRGKSSATCRCCVTYCEGENHLRNKSRAE
B19: IAAKAQLARQQSPSPIRHSPSPVRHVRAPTPSPVRSVSPAARISTSPIRSVRSPLLMRKTQASTVATGPEVPPPWKQEGYVASSSEAEMR (protein, listed as Homo sapiens)
chain: IAAKAQLARQQSPSPIRHSPSPVRHVRAPTPSPVRSVSPAARISTSPIRSVRSPLLMRKTQASTVATGPEVPPPWKQEGYVASSSEAEMR

In one experiment the target is T1, ADAM17 (Homo sapiens, UniProt P78536).
T1 construct: purchased RnD Systems
T1 sequence (P78536 215-824): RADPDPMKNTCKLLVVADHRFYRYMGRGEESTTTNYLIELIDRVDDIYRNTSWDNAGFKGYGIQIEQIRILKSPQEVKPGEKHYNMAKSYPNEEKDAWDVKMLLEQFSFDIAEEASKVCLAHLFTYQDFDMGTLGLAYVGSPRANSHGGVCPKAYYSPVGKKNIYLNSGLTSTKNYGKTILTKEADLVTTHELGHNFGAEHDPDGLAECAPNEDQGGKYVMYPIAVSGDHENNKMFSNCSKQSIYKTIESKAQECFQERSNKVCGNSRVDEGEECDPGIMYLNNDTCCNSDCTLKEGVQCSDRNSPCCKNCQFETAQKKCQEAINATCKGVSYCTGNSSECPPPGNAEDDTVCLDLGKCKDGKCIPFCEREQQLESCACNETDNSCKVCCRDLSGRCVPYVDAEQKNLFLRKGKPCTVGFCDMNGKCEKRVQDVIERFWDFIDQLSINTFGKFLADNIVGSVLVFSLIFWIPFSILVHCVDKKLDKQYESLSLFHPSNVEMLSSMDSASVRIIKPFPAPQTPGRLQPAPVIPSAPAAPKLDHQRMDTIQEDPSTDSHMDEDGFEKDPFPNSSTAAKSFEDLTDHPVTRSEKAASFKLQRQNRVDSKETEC
The experiment is described as follows: SEPARATE assay: human peptidome library digest with ADAM17. The experiment is classed as biochemical. Particulars: human library, ADAM17; peptide amino acids 496-585. As for the experimental part: Streptavidin-coupled magnetic beads (Dynabeads M-280 Streptavidin, ThermoFisher Scientific) were washed (TBS, pH 7.4, 0.01% NP40) and resuspended in binding buffer (TBS, pH 7.4, 0.001% NP40) containing 2E9 plaque forming units per 10 μl of bead slurry. End-over-end mixing at room temperature was performed for one hour. Phage-coated beads were washed three times with wash buffer and transferred into two protein LoBind Eppendorf tubes blocked with TBS, pH 7.4 containing 1% BSA.
Digestion occurred overnight at room temperature with end-over-end rotation. […] To remove any residual biotinylated phage that may have been nonspecifically released, the 150 μl supernatant of the quenched digest reaction is then incubated with a fresh 10 μl of slurry volume M280 streptavidin beads (pre-washed three times with wash buffer) in a LoBind Eppendorf tube blocked with TBS, pH 7.4 containing 1% BSA at room temperature for one hour with end-over-end rotation.
10 μl slurry volume of protein G magnetic dynabeads were washed in buffer (TBS, pH 7.4, 0.01% NP40) and then resuspended in 50 μl TBS, pH 7.4, 0.01% NP40 containing 4 μg of M2 FLAG antibody for thirty minutes at room temperature with end-over-end rotation. The 150 μl quenched digest reaction is added to the 10 μl FLAG-coated Protein G beads and incubated for 60 minutes at room temperature with end-over-end rotation to capture phage particles released at the protease digest step. Beads are rinsed once with 100 μl wash buffer and stored at −80° C. until PCR amplification.
Library PCR preparation, high-throughput DNA sequencing, and peptide read count data generation was performed as described previously.^44 Briefly, library peptide inserts are amplified by resuspending 10 μl of FLAG-coated Protein G beads in PCR1 master mix containing the T7-Pep2_PCR1_F forward primer ([…]) (SEQ ID NO:3) and a T7-SEPARATE vector specific reverse primer ([…]) (SEQ ID NO:4), which includes an adapter sequence for sample-specific barcoding and Illumina P7 adapter incorporation during a subsequent PCR2 reaction. The PCR2 amplicons are pooled and sequenced using an Illumina NextSeq instrument in standard output mode to obtain single-end 50 nucleotide reads. Dual indexed sample demultiplexing and clonal read count determination were performed using exact sequence matching. […] To calculate the normalization factor, 100 peptides were randomly selected from the mock digest conditions with a read count ranging between 10 and 40. The median read count value for these 100 peptides is calculated for each sample. The random peptide selection and median calculation is performed 20 times and the average of the 20 median values is calculated for each sample. Finally, the normalization factor is calculated by dividing the average median value for each sample by that for one of the mock digest conditions. Read counts are then converted to normalized read counts by dividing each sample's read count values by the normalization factor. Fold enrichments are calculated for each peptide by dividing their normalized read counts in the digest condition by the normalized read counts in the mock digest condition. The fold enrichments can be visualized in an MA plot by transforming the normalized read count data into a log ratio (M, on the y-axis) and a mean average (A, on the x-axis) between the digest and mock digest conditions.
As for B1, the “known substrate peptide identified by SEPARATE” value is recorded as “identified”.

Staying with this experiment, now noted: top 20 enriched peptides, human library (90-aa tiles); digest vs mock digest.
For B2, the “Adam17 Fold Change” value was determined as 57.55 fold.
The same measure, in the same setting: to B3 belongs 34.57 fold; to B4, 38.34 fold.
Still for that read-out and setting: to B5 belongs 43.29 fold.
For the molecule B6, the “Adam17 Fold Change” value is reported as 48.17 fold.
The same measure, in the same setting: to B7 belongs 34.93 fold; to B8, 41.41 fold.
On to B9, for which the “Adam17 Fold Change” value is on record as 35.48 fold.
Regarding B10, the “Adam17 Fold Change” value is on record as 39.99 fold.
Still for that read-out and setting: to B11 belongs 35.48 fold; to B12, 39.07 fold; to B13, 34.10 fold.
Same read-out and setting: to B14 belongs 39.34 fold.
Same read-out and setting: to B15 belongs 45.89 fold; to B16, 51.48 fold.
As for B17, the “Adam17 Fold Change” value is on record as 44.03 fold.
In the case of B18, the “Adam17 Fold Change” value came to 39.89 fold.
As to B19, the “Adam17 Fold Change” value amounted to 37.14 fold.
